# Laboratory results taken from IntAct's records for PubMed 24446487.
# Molecular target: ospg_shifl ospG (UniProt Q99PZ6)
# Sequence (Q99PZ6 whole entry): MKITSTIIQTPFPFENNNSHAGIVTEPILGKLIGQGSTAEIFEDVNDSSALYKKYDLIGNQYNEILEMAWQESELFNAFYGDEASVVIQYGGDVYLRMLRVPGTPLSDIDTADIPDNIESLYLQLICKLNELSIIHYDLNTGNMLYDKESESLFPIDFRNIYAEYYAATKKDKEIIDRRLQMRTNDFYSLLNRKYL
# Ubiquitin-conjugating enzyme E2 D3 (Homo sapiens), P61077 F62A, sequence (P61077 whole entry F62A): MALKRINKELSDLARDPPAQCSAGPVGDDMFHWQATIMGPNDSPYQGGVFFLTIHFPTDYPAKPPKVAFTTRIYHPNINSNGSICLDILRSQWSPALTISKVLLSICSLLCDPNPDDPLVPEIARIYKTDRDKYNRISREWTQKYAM
substance,measurement,value
"Ubiquitin-conjugating enzyme E2 D3 (Homo sapiens), P61077 F62A",effect of a mutation on the interaction,disrupting interaction
